Measured values as given in paper PMC5352868, “Physicochemical and Biological Characterization of the Proposed Biosimilar Tocilizumab” (BioMed Research International, 2017).

What was measured:
[1] = molecular target: T1, soluble interleukin-6 receptor (sIL-6R) (Homo sapiens, UniProt P08887); assay: cell-based or functional assay
[2] = molecular target: T1, soluble interleukin-6 receptor (sIL-6R); assay: SPR; Biacore X100 plus; anti-Fc antibody immobilised on CM5 chip (~2500 RU) captures the antibody sample (1.0 ug/mL, 10 uL/min, 60 s); IL-6R injected 150 to 4.7 ng/mL, 30 uL/min, 180 s, dissociation 500 s, HBS-EP+ buffer; minimum and maximum of four batches; conditions: both partners purified

T1 sequence (P08887 20-365): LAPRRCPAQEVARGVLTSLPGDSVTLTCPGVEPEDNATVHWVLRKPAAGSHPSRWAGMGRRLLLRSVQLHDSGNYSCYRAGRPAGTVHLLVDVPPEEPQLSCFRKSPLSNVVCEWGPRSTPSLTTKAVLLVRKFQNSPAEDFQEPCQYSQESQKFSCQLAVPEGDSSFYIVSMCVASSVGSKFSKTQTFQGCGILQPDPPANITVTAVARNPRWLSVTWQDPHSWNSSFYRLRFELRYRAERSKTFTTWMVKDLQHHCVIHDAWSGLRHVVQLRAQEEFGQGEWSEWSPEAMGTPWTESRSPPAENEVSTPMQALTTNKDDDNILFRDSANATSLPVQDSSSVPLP

DS-1 cell growth inhibition (CCK-8, 72 hrs, antibody 800 ug/mL to 12.21 ng/mL), relative potency (EC50) towards originator tocilizumab, batch 1 of 4; blocks IL-6 with IL-6R on the cells [1] | DS-1 cell growth inhibition (CCK-8, 72 hrs, antibody 800 ug/mL to 12.21 ng/mL), relative potency (EC50) towards originator tocilizumab, batch 2 of 4; blocks IL-6 with IL-6R on the cells [1] | DS-1 cell growth inhibition (CCK-8, 72 hrs, antibody 800 ug/mL to 12.21 ng/mL), relative potency (EC50) towards originator tocilizumab, batch 3 of 4; blocks IL-6 with IL-6R on the cells [1] | DS-1 cell growth inhibition (CCK-8, 72 hrs, antibody 800 ug/mL to 12.21 ng/mL), relative potency (EC50) towards originator tocilizumab, batch 4 of 4; blocks IL-6 with IL-6R on the cells [1] | Kd [2] | Binder
98 % relative potency | 102 % relative potency | 94 % relative potency | 105 % relative potency | 0.92 to 1.17 nM | HS628 (proposed biosimilar tocilizumab) (antibody, V domains shown, found identical to the heavy chain of m1; found identical to the light chain of m1; IgG1; Four batches tested (20130901-20130904); source: Zhejiang Hisun Pharmaceutical; copies: 2 + 2) VH: EVQLQESGPGLVRPSQTLSLTCTVSGYSITSDHAWSWVRQPPGRGLEWIGYISYSGITTYNPSLKSRVTMLRDTSKNQFSLRLSSVTAADTAVYYCARSLARTTAMDYWGQGSLVTVSS VL: DIQMTQSPSSLSASVGDRVTITCRASQDISSYLNWYQQKPGKAPKLLTYYTSRLHSGVPSRFSGSGSGTDFTFTISSLQPEDIATYYCQQGNTLPYTFGQGTKVEIK
 |  |  |  | 1.08 to 1.78 nM | Originator tocilizumab (Actemra) (antibody, V domains shown, Recombinant humanized IgG1; also called originator product; source: bought: Roche Pharma (Schweiz) Ltd. (manufactured by Chugai Pharma Manufacturing Co., Ltd.); copies: 2 + 2) VH: EVQLQESGPGLVRPSQTLSLTCTVSGYSITSDHAWSWVRQPPGRGLEWIGYISYSGITTYNPSLKSRVTMLRDTSKNQFSLRLSSVTAADTAVYYCARSLARTTAMDYWGQGSLVTVSS VL: DIQMTQSPSSLSASVGDRVTITCRASQDISSYLNWYQQKPGKAPKLLTYYTSRLHSGVPSRFSGSGSGTDFTFTISSLQPEDIATYYCQQGNTLPYTFGQGTKVEIK
